Measurements reported in the nanobody polyreactivity screen of Harvey et al. (2022).

test: yeast display, Sf9 membrane polyspecificity reagent, FACS + sequencing; frameworks hold sequencing errors
Method in brief: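 Genes from sorted yeast were amplified by colony PCR, read by MiSeq 2 × 250 sequencing and filtered on CDR length. These cells carried a synthetic nanobody library in Saccharomyces cerevisiae BJ5465 and were sorted by FACS into low and high (top ~1%) gates on anti-HA and streptavidin fluorescence. Polyreactivity is labelled according to the gate of origin.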

Sequence	polyreactivity (PSR sort gate)
QVQLVESGGGLVQAGGRLRLSCAASGNTLRGYAMGWYRPAPGKERELVSAISYSSVNTYYADSVKGRFTISRDNAKNTVYLQMNSLKPEDTAVYYCAADYYYYRRTQYDLRGYPYYYWGQGTQVTVSS	low polyreactivity
QVQLVESGGGLVQAGGRLRLSCAASGRIFAKNAMGWYRQAPGKERELVAAISGSGGSTYYADSVKGRFTISRDNAKNTVYLQMNSMKPDDTAVYYCAATRGPNYRNGYWGQGTQVTVSS	high polyreactivity
QVQLVESGGGLVQAGGRLRLSCAASGRIFDYNAMGWNRQAPWKERELVAAIRTSGGSTYYADSVKGRFTISRDNAKNTVYLPMISLKPEDNAVYYCAATSRRYRVRYDSWGQGTQVTVSS	high polyreactivity
QVQLVESGGGLVQAGGRLRLSCAASGRIFIRNAMGWYRQAPGKERELVAAIDSVGSTYYADSVKGRFTISRDNAKNTVYLQMNSLKPEDTAVYYCAARGWKYASPYWRYYYWGQGTQVTVSS	low polyreactivity
QVQLVESGGGLVQAGGRLRLSCAASGRIFKFYAMGWYRQAPGKERELVAAIRRGGTTNYADSVKGRFTISRDNAKNTFYLQMNSLKPEDTAVYFCAADGWYRVLTGLVSSWKYWGQGTQVTVSS	high polyreactivity
QVQLVESGGGLVQAGGRLRLSCAASGRIFLGYTMGSYRQAPWKERELVAAISKSGDSTYYADAVKGRFTFSSDNAKYTVFLQMNSLKPEDTAVYYCATRGYQSLRHQGTDDYWGQGTQVTVSS	high polyreactivity
QVQLVESGGGLVQAGGRLRLSCAASGRIFQYNAMGWYRQAPGKERELVAAITSSGGSTYYADSVKGRFTISRDNAKNTVYLQMNSLKPEDTAVYYCAAKRPQYYVQFGYWGHGTQVTVSS	high polyreactivity
QVQLVESGGGLVQAGGRLRLSCAASGRIFVRYVMGWYRQAPGQERALVAAISSSGGSTYYADSVKGRYTISRDTAKKTVYLQMNSLKPEDTAVYYCATDLIDKYFLPYDYWGQGTQVTVSS	low polyreactivity
QVQLVESGGGLVQAGGRLRLSCAASGRIFVYYMGWNIQAPGKERELVAAISFGGGSTYYADSVKGRFTISRDNAKNSVYLQMYSLKPEDTAVYYCNADGDDLDWNYYLVQYDYWGQGTQVTVSS	low polyreactivity
QVQLVESGGGLVQAGGRLRLSCAASGRIFYFYDMGWYRQAPGTERELGAAISRGGSTNYADSVKGRFTISRDNAKNTVYLQMNRLKPQDTAVYYCNAGLYDLRDIAGYSDYDYWGQGTQVTVSS	low polyreactivity
QVQLVESGGGLVQAGGRLRLSCAASGRIFYLNAMGWYRQAPGKETELVAAINTSGDATYYADSEKGRFTISRDIAKNTVYLQMNSLKPEDTAVYYCAAYVIGPDQFIYDYWGQGPQVTVSS	low polyreactivity
QVQLVESGGGLVQAGGRLRLSCAASGRIFYNYAMGWYRQAPGKERELVAAISVSGGSTYYADSVKGRFTISRDNAKNTVYLQMISMKPEDTAVYYCATYSSRQRKSSYYYGGQGTQVTVSS	high polyreactivity
QVQLVESGGGLVQAGGRLRLSCAASGRSFYSYTMGWYRQAPGKERELVAAIRKSGGRTYYADSVKGRFTISRDNAKNTVYLQMNSLKPEDTAVYYCATTNYELSYYYWGQGTQVTVSS	high polyreactivity
QVQLVESGGGLVQAGGRLRLSCAASGRTFANYARGGYRQAPGTERELVAAITSGGRTYYADSVKGRFTISRDNAKNTVYLQMNSLKPEDTPVYYCAAEITYLYDYWGQGTQVTVSS	high polyreactivity
QVQLVESGGGLVQAGGRLRLSCAASGRTFDRMLMGWYRQAPGKERELVAAITSGGRTNYADSVKGRFTISRDNAKNTVYLQMNSLKPEDTAVYYCAKRASALLRHSYDYWGQGTQVTVSS	low polyreactivity
QVQLVESGGGLVQAGGRLRLSCAASGRTFGWYAMGWYRQAPGKERELVASITQRGGRTYYADSVKGRFTISRDNAKNTVYLQMNSLKPEDTAVYYCAAKTSPGMYYWGQGTQVTVSS	high polyreactivity
QVQLVESGGGLVQAGGRLRLSCAASGRTFPWNVMGWYRQAPGKERELVAAISWSSGRTYYADSVKGRFTISRDNAKNTVYLQMNSLKPDDTAVYYCAKRYRPYRGNSGNDYWGQGTQVTVSS	high polyreactivity
QVQLVESGGGLVQAGGRLRLSCAASGRTFRGYAMGWYRQAPGKERELVAAITSGGSTNYADSVKGRFTISRDNAKYTVYLQMTSLKPEDTAVYYCAAEPYSWDTWVDYDYWGQGTQVTVSS	low polyreactivity
QVQLVESGGGLVQAGGRLRLSCAASGRTFRPYAMGWYRQAPGKERELVAAITSGGSTYYADSVKGRFTISRDNAKNTVYFQMNSLKPEDTAVYYCNAKYYYQPPYDYWGQGTQVTVSS	low polyreactivity
QVQLVESGGGLVQAGGRLRLSCAASGRTFTVYAMGWYRQAPGKEREFVAAITERGGSTYYADSVKGRFTISRDNAKNTVYLKMNSLKPEDTSVYYFAAVFYWRPGWYVRFDYWGQGTQVTVSS	low polyreactivity
QVQLVESGGGLVQAGGRLRLSCAASGRTFVQYAIAWYRQAPGKEREFVAAISSRVGSTYYADSVKGRFTISRDNAKNTVYLQMNSLKPEDTAVYYCNRDLVPRFDYWGQGTQVTVSS	low polyreactivity
QVQLVESGGGLVQAGGRLRLSCAASGSICEPYVMGWYIQAPGKERELVAAIRQTGGSTYYADSVKGRFTISRDNAKNTVYLQMNSLKPEDTAVYYCNAEQKPSGLYDYRGVEGEMGYWGQGTQVTVSS	low polyreactivity

Sequence	polyreactivity (PSR sort gate)
QVQLVESGGGLVQAGGRLRLSCAASGSIFEGYVMGWYRQAPGKERELVAAITTGGGSTYYADSVKGRFTISRDNAKNTVYLQMNSLKPEDTAVYYCAKDGGRWGQGTQVTVSS	low polyreactivity
QVQLVESGGGLVQAGGRLRLSCAASGSIFGEYAMGWYRQAPGKERELVADITTGGNTNYADSVKGRFTISRDNAKNTVYLQMNSLKPEDTAVYYCNAYGNTYGYWWFGYWGQGTQVTVSS	low polyreactivity
QVQLVESGGGLVQAGGRLRLSCAASGSIFGFYAMGWYRPAPGKERELVAGISVSDGSTYYADSVKGRFTISRDNAKNTVYLQMNSLKPEDTAVYYCAASPRGSYGYYYWGQGTQVTVSS	low polyreactivity
QVQLVESGGGLVQAGGRLRLSCAASGSIFITYAMGWYRQAPGKEMELVAAIRDSGDRTYYADSVKGRFTISRDNAKNTVYLQMNSLKPEDTAVYYCNARWQEPLKYDYWGQGTQVTVSS	low polyreactivity
QVQLVESGGGLVQAGGRLRLSCAASGSIFQYNAMGWSRQAPGKERELVAAISRSGGSTYYADSVKGRFTISRDNAKNTVYLQMNSLKPEDTAVYYCHAVLGYYSPYDYWGQGTQVTVSS	low polyreactivity
QVQLVESGGGLVQAGGRLRLSCAASGSIFRIYTMGWYRQEPGKERELVAAINSGGSTNYADSVKGRFTISRDNAKNTVYLQMNSLKPEDTAVYYCAATWWQYDQGLHRYDYWGQGTQVTVSS	high polyreactivity
QVQLVESGGGLVQAGGRLRLSCAASGSIFRSNAMGWYRLAPGKEREFVAASTRSGGSTYYADTVKGRFTISRDNAKNTVYLQMNSLKPAATAVYYCAADWKSYAYYYWGQGTQVTVSS	high polyreactivity
QVQLVESGGGLVQAGGRLRLSCAASGSIFSSNAMGWYRQAPGKERELVASIRGSGVSTYYADSVKGRFTISRDNAKNTVYLQMNSMKPEDTAVYYCAARYGRSYFGYYFWGQGTQVTVSS	high polyreactivity
QVQLVESGGGLVQAGGRLRLSCAASGSISASYAMGWSRQAPGKERELVAAITSGGSTYYADSVKGRFTFSRDNAKNTVYFQMNSLKPEETAVYYCAKRPKRTYYPHIGYDYWGQGTQVTVSS	low polyreactivity
QVQLVESGGGLVQAGGRLRLSCAASGSISYFNDMGWYRQAPGKERELVAAIRDSGGITYADSVKGRFTISRDNAKNTVYLQMNSLKPEDTAVYYCATYGNEIYDYWGQGTQVTVSS	low polyreactivity
QVQLVESGGGLVQAGGRLRLSCAASGSIVGLYVMGWYRQAPGKERELVATITSGGSTYYADSVKGRFTISRDNAKNTDYLQMNSLKPEDTAVYYSAADPQDAADLPDLFYDYDYWGQGTQVTVSS	low polyreactivity
QVQLVESGGGLVQAGGRLRLSCAASGSTFAIYGMGWYRQAPGKERELVAGITRGGSTNYADSVKGRFTISRDNAKNTVYLQMNSLKPEDTAVYYCNSPFGVRRFKTKGRSHYEYWGQGTQVTVSS	high polyreactivity
QVQLVESGGGLVQAGGRLRLSCAASGSTFEEYAMGWYRQAPGKERELVAGITWGGGSTYYADSVKGRFTISRDNAKNTVYLQMNSQKPEDTAVYYCAAEPGWYADTPASDSKYDYWGQGTQGTVSS	low polyreactivity
QVQLVESGGGLVQAGGRLRLSCAASGSTFGYYARGWYRQAPGKERELVAAISTSSGSKYFADSVKGRFTISRDNAKNTVYLQMNSLKPEDTAVYYCNARKASYRSIYYYWGQGTQVTVSS	high polyreactivity
QVQLVESGGGLVQAGGRLRLSCAASGSTFIDYAMGWYRPAPGKERELVAAITNGGNTKYADSVKGRFTISRDNAKNTVYLQMKSLKPEDTSVDYCSREPSIFTSSYDYWGQGTQVTVSS	low polyreactivity
QVQLVESGGGLVQAGGRLRLSCAASGSTFIYYAMGWYRQAPGKERELVAAITGRGTRTYYADSVKGRFTISRDNAKNTVYLQMNSLKPEDTAVYYCNTLQTYLYDYWGQGTQVTVSS	high polyreactivity
QVQLVESGGGLVQAGGRLRLSCAASGSTFQRYAMGWYRQAPGKDRELVAAISSTGGSTFYADSVKGRFTISRDTAKNTVYLHMNSLKPEDTAVYYCNKYRATNSARDYWGQGTQVTVSS	high polyreactivity
QVQLVESGGGLVQAGGRLRLSCAASGSTFSDYAMGWYRQAPGKERELVADISRSGASTYYADSVKGRFTISRYNAKNTVYLQMNSLKPEDTPVYSSNKAYSGVRYDSWGPGTQVTVSS	low polyreactivity
QVQLVESGGGLVQAGGRLRLSCAASGSTFVWYAMVWYRQAPGKEREFVATISWSDGSTYYADSVKGRFTISRDNAKNTVYLQLNSLIPEDTAVYYCASDVDRFFTYKYDYWGQGTQVTVSS	low polyreactivity
QVQLVESGGGLVQAGGRLRLSCAASGSTIPRNAMGWYRHAPGKERELVAAITSGGSTNYADSVKGRFTISRDNAKNTVYLQMNSLKPEDTAVYYCAADEQVNTQYVVWGDYWGQGTQVTVSS	low polyreactivity
QVQLVESGGGLVQAGGRLRLSCAASGSTLIRNVMGWYRQAPGKERELVAAINTRGTTTYYADSVKGRFTISRDKAKNTVYLQMNSLKPEDTAVSYCAARTPHYSYGYWGQGTHVTVSS	high polyreactivity
